Results on six molecules are retold here after patent publication US20220406376A1 (MacroGenics, published 2022).

Assay [1] concerns the target T1, extracellular portion of human HER2 fused to a histidine-containing peptide (human, UniProt P04626 23-652).
T1 construct: extracellular domain; also called huHER2; Human HER2/neu
The assay is described as follows: SPR (BIACORE); antibody captured on anti-human Fc; huHER2 6.25-50 nM; 1:1 Langmuir. From the text: The humanized variants were selected to have improved binding affinity as compared to the parental murine antibody and as described may be further engineered to eliminate sequence liabilities (e.g., isomerization, deamidation sites) as described above. The binding affinity of several combinations of humanized VH and VL domains was examined by BIACORE®. Thus, an extracellular portion of human HER2 fused to a histidine-containing peptide (“huHER2”) was passed over a surface coated with immobilized antibody. Briefly, each test molecule was captured onto an F(ab)₂ goat-anti-human Fc-coated surface and then incubated in the presence of different concentrations (6.25 nM-50 nM) of huHER2. The kinetics of binding were determined via BIACORE® analysis binding (normalized 1:1 Langmuir binding model).
A general note: SPR reads the build-up and loss of mass on a sensor chip optically.

Assay [2] has as its target T2, HER2/neu on the surface of target cells (N87, JIMT-1, MCF-7, MDA-MB231) (UniProt P04626 23-1255, limits assumed).
T2 construct: whole, on cells
As to the kind of experiment: flow cytometry on N87 gastric cancer cells, anti-hFc APC MFI.

For assay [3], the target named is T3, CD137 on the surface of cells (activated human T cells; engineered CHO cells) (human, UniProt Q07011 24-255).
T3 construct: whole, on cells; also called human CD137; cell surface expressed CD137
T3 sequence (Q07011 24-255, change not shown): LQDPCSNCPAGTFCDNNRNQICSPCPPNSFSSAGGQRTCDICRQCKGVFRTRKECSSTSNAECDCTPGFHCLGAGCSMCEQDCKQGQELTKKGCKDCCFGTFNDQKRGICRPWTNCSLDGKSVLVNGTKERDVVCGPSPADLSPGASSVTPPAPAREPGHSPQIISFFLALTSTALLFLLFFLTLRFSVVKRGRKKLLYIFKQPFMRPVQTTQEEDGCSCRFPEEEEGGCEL
The assay is described as follows: flow cytometry on activated pan T cells gated CD8, anti-hFc APC MFI. (In general: A flow cytometer gives signals particle by particle.)

For assay [4], the target named is T3, CD137 on the surface of cells …. As to the kind of experiment: flow cytometry on activated pan T cells (donor D46433, CD8 PE), anti-hFc APC MFI.
Assay [5] concerns the target T2, HER2/neu on the surface of target cells …. The assay is described as follows: flow cytometry on N87 cells, anti-hFc APC MFI.
For assay [6] the target is unchanged. As to the kind of experiment: flow cytometry on JIMT-1 cells, anti-hFc APC MFI.
The target is the same in assay [7]. The assay is described as follows: flow cytometry on MCF-7 cells, anti-hFc APC MFI.

B1: hHER2 MAB-1 (1.2) (antibody, V domains shown)
VH: QVQLVQSGAEVKKPGASVKVSCKASGYTFTNYGMNWVRQAPGQGLEWMGWINTNIGEPTYTEEFKGRVTMTRDTSISTAYMELSRLRSDDTAVYYCARDDGYGNRVSYWGQGTLVTVSS
VL: DIQMTQSPSSLSASVGDRVTITCKASQDINTYLSWFQQKPGKAPKTLIYRANRLVEGVPSRFSGSGSGTDFTLTISSLQPEDFATYYCLQHDEFPWTFGQGTKLEIK
As for B1, in assay [1], the dissociation constant (Kd) (commonly the concentration at which binding is half-saturated) turned out to be 0.45 nM; the dissociation rate constant (koff) – broadly, the first-order rate constant of dissociation – is 0.00028 s⁻¹; the association rate constant (kon) (usually a measure of how fast the partners come together) turned out to be 620000 M⁻¹ s⁻¹.

B2: hHER2 MAB-1 (1.3) (antibody, V domains shown)
VH: QVQLVQSGAEVKKPGASVKVSCKASGYTFTNYGMNWVRQAPGQGLEWMGWINTNIGEPTYTEEFKGRVTMTRDTSISTAYMELSRLRSDDTAVYYCARDDGYGNRVSYWGQGTLVTVSS
VL: DIQMTQSPSSLSASVGDRVTITCKASQDISNYLSWFQQKPGKAPKTLIYRANRLQSGVPSRFSGSGSGTDFTLTISSLQPEDFATYYCLQHDEFPWTFGQGTKLEIK
With B2, in assay [1], the dissociation constant Kd came out at 0.36 nM, the off-rate (koff) was found to be 0.000223 s⁻¹ and the kon turned out to be 618000 M⁻¹ s⁻¹.

B3: DART-C (bispecific antibody)
chain 1: not shown
chain 2: DIQMTQSPSSLSASVGDRVTITCKASQDISNYLSWFQQKPGKAPKTLIYRANRLQSGVPSRFSGSGSGTDFTLTISSLQPEDFATYYCLQHDEFPWTFGQGTKLEIKGGGSGGGGQVQLVQSGAEVKKPGASVKVSCKASGYTFTSYWINWVKQAPGQGLEWIGNIYPSDSYTNYNQKFKDKATITADKSTSTAYMELSSLRSEDTAVYYCTRDYGSSYSFDYWGQGTTVTVSSGGCGGGKVAACKEKVAALKEKVAALKEKVAALKE
As for B3, the 50% effective concentration (EC50 (read off the curve)) – broadly, the midpoint of the concentration-response curve – in assay [2] is approximately 0.5 nM; in assay [3], approximately 0.1 nM.

B4: HER2 MAB-1 (antibody, V domains shown)
VH: EVQLQESGPELKKPGETVKISCKASGYTFTNYGMNWVKQAPGKGLKWMGWINTNIGEPTYTEEFKGRFAFSLGTSASTAFLQINNLKNEDTATYFCARDDGYGNRVSYWGQGTLVTVSA
VL: DILMTQSPLSMYTSLGERVTITCKASQDINSYLSWFQQKPGKSPKTLIYRANRLVDGVPSRFSGSGSGQDYSLTISSLEYEDMGIYYCLQHDEFPWTFGGGTKLEIK
notes: also called 8H11
Take B4: in assay [1], the dissociation constant (Kd) is 1.27 nM, the off-rate (koff) worked out at 0.000654 s⁻¹ and the on-rate constant (kon) is 510000 M⁻¹ s⁻¹.

B5: DART-E (bispecific antibody, human IgG1, kappa, L234A L235A)
heavy: QVQLQQPGAELVRPGASVKLSCKASGYTFTSYWINWVKQRPGQGLEWIGNIYPSDSYTNYNQKFKDKATLTVDKSSSTAYMQLSSPTSEDSAVYYCTRDYGSSYSFDYWGQGTTLTVSSASTKGPSVFPLAPSSKSTSGGTAALGCLVKDYFPEPVTVSWNSGALTSGVHTFPAVLQSSGLYSLSSVVTVPSSSLGTQTYICNVNHKPSNTKVDKRVEPKSCDKTHTCPPCPAPEAAGGPSVFLFPPKPKDTLMISRTPEVTCVVVDVSHEDPEVKFNWYVDGVEVHNAKTKPREEQYNSTYRVVSVLTVLHQDWLNGKEYKCKVSNKALPAPIEKTISKAKGQPREPQVYTLPPSREEMTKNQVSLSCAVKGFYPSDIAVEWESNGQPENNYKTTPPVLDSDGSFFLVSKLTVDKSRWQQGNVFSCSVMHEALHNRYTQKSLSLSPGK
light: DIQMTQTTSSLSASLGDRVTISCRPSQDISNYLNWYQQKPDGTVKLLIYYTSRLRSGVPSRFSGSGSGTDYSLTISNLEQEDIATYFCQQGDTLPYTFGGGTKLEIKRTVAAPSVFIFPPSDEQLKSGTASVVCLLNNFYPREAKVQWKVDNALQSGNSQESVTEQDSKDSTYSLSSTLTLSKADYEKHKVYACEVTHQGLSSPVTKSFNRGEC
chain 1: QVQLQQPGAELVRPGASVKLSCKASGYTFTSYWINWVKQRPGQGLEWIGNIYPSDSYTNYNQKFKDKATLTVDKSSSTAYMQLSSPTSEDSAVYYCTRDYGSSYSFDYWGQGTTLTVSSASTKGPSVFPLAPSSKSTSGGTAALGCLVKDYFPEPVTVSWNSGALTSGVHTFPAVLQSSGLYSLSSVVTVPSSSLGTQTYICNVNHKPSNTKVDKRVEPKSCDKTHTCPPCPAPEAAGGPSVFLFPPKPKDTLMISRTPEVTCVVVDVSHEDPEVKFNWYVDGVEVHNAKTKPREEQYNSTYRVVSVLTVLHQDWLNGKEYKCKVSNKALPAPIEKTISKAKGQPREPQVYTLPPSREEMTKNQVSLWCLVKGFYPSDIAVEWESNGQPENNYKTTPPVLDSDGSFFLYSKLTVDKSRWQQGNVFSCSVMHEALHNHYTQKSLSLSPGGGGSGGGSGGGDIQMTQSPSSLSASVGDRVTITCKASQDISNYLSWFQQKPGKAPKTLIYRANRLQSGVPSRFSGSGSGTDFTLTISSLQPEDFATYYCLQHDEFPWTFGQGTKLEIKGGGSGGGGQVQLVQSGAEVKKPGASVKVSCKASGYTFTNYGMNWVRQAPGQGLEWMGWINTNIGEPTYTEEFKGRVTMTRDTSISTAYMELSRLRSDDTAVYYCARDDGYGNRVSYWGQGTLVTVSSGGCGGGEVAALEKEVAALEKEVAALEKEVAALEK
chain 2: DIQMTQSPSSLSASVGDRVTITCKASQDISNYLSWFQQKPGKAPKTLIYRANRLQSGVPSRFSGSGSGTDFTLTISSLQPEDFATYYCLQHDEFPWTFGQGTKLEIKGGGSGGGGQVQLVQSGAEVKKPGASVKVSCKASGYTFTNYGMNWVRQAPGQGLEWMGWINTNIGEPTYTEEFKGRVTMTRDTSISTAYMELSRLRSDDTAVYYCARDDGYGNRVSYWGQGTLVTVSSGGCGGGKVAALKEKVAALKEKVAALKEKVAALKE
B5: in assay [2], the binding result is listed as “binds”. In addition, the concentration for a half-maximal effect (EC50 (read off the curve)) in assay [3] is approximately 0.1 nM.

B6: TRIDENT-A3 (bispecific antibody, human IgG1, kappa, L234A L235A)
chain 1: DIQMTQSPSSLSASVGDRVTITCRPSQDISNYLNWYQQKPDKTVKLLIYYTSRLRSGVPSRFSGSGSGTDFTFTISSLQPEDIATYFCQQGDTLPYTFGQGTKLEIKGGGSGGGGQVQLVQSGAEVKKPGASVKVSCKASGYTFTSYWINWVKQAPGQGLEWIGNIYPSDSYTNYNQKFKDKATITADKSTSTAYMELSSLRSEDTAVYYCTRDYGSAYSYSLWGQGTTVTVSSASTKGEVAACEKEVAALEKEVAALEKEVAALEKGGGDKTHTCPPCPAPEAAGGPSVFLFPPKPKDTLMISRTPEVTCVVVDVSHEDPEVKFNWYVDGVEVHNAKTKPREEQYNSTYRVVSVLTVLHQDWLNGKEYKCKVSNKALPAPIEKTISKAKGQPREPQVYTLPPSREEMTKNQVSLWCLVKGFYPSDIAVEWESNGQPENNYKTTPPVLDSDGSFFLYSKLTVDKSRWQQGNVFSCSVMHEALHNHYTQKSLSLSPGK
chain 2: DIQMTQSPSSLSASVGDRVTITCRPSQDISNYLNWYQQKPDKTVKLLIYYTSRLRSGVPSRFSGSGSGTDFTFTISSLQPEDIATYFCQQGDTLPYTFGQGTKLEIKGGGSGGGGQVQLVQSGAEVKKPGASVKVSCKASGYTFTSYWINWVKQAPGQGLEWIGNIYPSDSYTNYNQKFKDKATITADKSTSTAYMELSSLRSEDTAVYYCTRDYGSAYSYSLWGQGTTVTVSSASTKGKVAACKEKVAALKEKVAALKEKVAALKE
heavy: QVQLVQSGAEVKKPGASVKVSCKASGYTFTNYGMNWVRQAPGQGLEWMGWINTNIGEPTYTEEFKGRVTMTRDTSISTAYMELSRLRSDDTAVYYCARDDGYGNRVSYWGQGTLVTVSSASTKGPSVFPLAPSSKSTSGGTAALGCLVKDYFPEPVTVSWNSGALTSGVHTFPAVLQSSGLYSLSSVVTVPSSSLGTQTYICNVNHKPSNTKVDKRVEPKSCDKTHTCPPCPAPEAAGGPSVFLFPPKPKDTLMISRTPEVTCVVVDVSHEDPEVKFNWYVDGVEVHNAKTKPREEQYNSTYRVVSVLTVLHQDWLNGKEYKCKVSNKALPAPIEKTISKAKGQPREPQVYTLPPSREEMTKNQVSLSCAVKGFYPSDIAVEWESNGQPENNYKTTPPVLDSDGSFFLVSKLTVDKSRWQQGNVFSCSVMHEALHNRYTQKSLSLSPGK
light: DIQMTQSPSSLSASVGDRVTITCKASQDISNYLSWFQQKPGKAPKTLIYRANRLQSGVPSRFSGSGSGTDFTLTISSLQPEDFATYYCLQHDEFPWTFGQGTKLEIKRTVAAPSVFIFPPSDEQLKSGTASVVCLLNNFYPREAKVQWKVDNALQSGNSQESVTEQDSKDSTYSLSSTLTLSKADYEKHKVYACEVTHQGLSSPVTKSFNRGEC
On to B6, for which the concentration for a half-maximal effect (EC50 (read off the curve)) in assay [4] was approximately 0.05 nM; in assay [5] it was approximately 1 nM; in assay [6], approximately 0.7 nM; in assay [7], approximately 0.2 nM.
